From article PMC4653306, “Metagenomics of an Alkaline Hot Spring in Galicia (Spain): Microbial Diversity Analysis and Screening for Novel Lipolytic Enzymes” (Frontiers in Microbiology, 2015)

Substrate: CCCCCCCCCCCC(=O)Oc1ccc([N+](=O)[O-])cc1
Assay: spectrophotometric p-nitrophenol release (A400), initial rates, Michaelis-Menten fit
Format: biochemical, uncultured organism
Conditions: extracellular medium of recombinant yeast, Tris/HCl pH 7.5, CaCl2, 40 °C, pNP12 0.002-2.5 mM
Source text: spectrophotometric p-nitrophenol release (A400), initial rates, Michaelis-Menten fit on LOB4Est

B1: LOB4Est (uncultured organism) (protein)
chain: SRPRTAVHDRVLELVQQQIAAGQQLGVQVCAYQNGEKIVDIVAGVMGPDDPRPVQPDTLFNSFSTTKGVAATALHILAEQGKLEYEQPVARYWPAFAANGKERVTVAQAMSHQAGLHAMPTPSTIETLCDWEGGLNWVASGVPAWEPGTATGYHAITYAWVVGGIVYGATGRHIKDVIREEIAIPLGVADELFVGIPEGVEDRLATLAVPAPGEGMALPIPPDHDFFKAMPPSLGGHVYNDMRVRRACLPSANGHFSARALAKMYAALAGGGVVDGVRLVSPERIALMQRILTADMDRVLMLPLRKGVGFMMGGPVNGVSGVFGPRETAFGHSGAGGSTAFCDPETGLAVAVTINQMQMTLQAEGPTYAICQLIREELGCA
notes: yeast alpha-factor secretion signal fusion (removed on secretion), N-terminal FLAG-tag kept; secreted by Saccharomyces cerevisiae BJ3505 (YEpFLAG-1), assayed as unpurified extracellular medium
B1 showed a Km of 298 µM and a Vmax of 264 µM/min.
